Measured values as given in the supplement of paper PMC5998384.

Experiments:
[1] = test system: HeLa Kyoto; assay: solubility in G1/S (NP-40 vs SDS abundance) (log2 ratio); higher = more soluble; conditions: cell cycle stage: G1/S
[2] = test system: HeLa Kyoto; assay: solubility change mitosis vs G1/S (difference of NP-40 vs SDS log2 ratios) (log2 ratio difference); higher = more soluble in mitosis
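Wherever solubility change mitosis vs G1/S (difference of NP-40 vs SDS log2 ratios) is given: synchronized HeLa Kyoto cells (double thymidine block for G1/S, nocodazole release for mitosis), protein amounts in NP-40 versus SDS lysates quantified by mass spectrometry, three biological replicates.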
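Wherever solubility in G1/S (NP-40 vs SDS abundance) is given: HeLa Kyoto cells arrested at G1/S by double thymidine block, proteins quantified by TMT10plex mass spectrometry in mild NP-40 versus SDS extracts, three biological replicates.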

Row | Sequence | solubility in G1/S (log2) [1] | solubility change mitosis (log2) [2]
1 | MPLPEPSEQEGESVKAGQEPSPKPGTDVIPAAPRKPREFSKLVLLTASDQDEDGVGSKPQEVHCVLSLEMAGPATLASTLQILPVEEQGGVVQPALEMPEQKCSKLDAAAPQSLEFLRTPFGGRLLVLESFLYKQEKAVGDKVYWKCRQHAELGCRGRAITRGLRATVMRGHCHAPDEQGLEARRQREKLPSLALPEGLGEPQGPEGPGGRVEEPLEGVGPWQCPEEPEPTPGLVLSKPALEEEEAPRALSLLSLPPKKRSILGLGQARPLEFLRTCYGGSFLVHESFLYKREKAVGDKVYWTCRDHALHGCRSRAITQGQRVTVMRGHCHQPDMEGLEARRQQEKAVETLQAGQDGPGSQVDTLLRGVDSLLYRRGPGPLTLTRPRPRKRAKVEDQELPTQPEAPDEHQDMDADPGGPEFLKTPLGGSFLVYESFLYRREKAAGEKVYWTCRDQARMGCRSRAITQGRRVTVMRGHCHPPDLGGLEALRQREKRPNTAQRGSPGGPEFLKTPLGGSFLVYESFLYRREKAAGEKVYWTCRDQARMGCRSRAITQGRRVMVMRRHCHPPDLGGLEALRQREHFPNLAQWDSPDPLRPLEFLRTSLGGRFLVHESFLYRKEKAAGEKVYWMCRDQARLGCRSRAITQGHRIMVMRSHCHQPDLAGLEALRQRERLPTTAQQEDPEKIQVQLCFKTCSPESQQIYGDIKDVRLDGESQ [FLYWCH1] | -0.557 | 0.409
2 | MPLSSPNAAATASDMDKNSGSNSSSASSGSSKGQQPPRSASAGPAGESKPKSDGKNSSGSKRYNRKRELSYPKNESFNNQSRRSSSQKSKTFNKMPPQRGGGSSKLFSSSFNGGRRDEVAEAQRAEFSPAQFSGPKKINLNHLLNFTFEPRGQTGHFEGSGHGSWGKRNKWGHKPFNKELFLQANCQFVVSEDQDYTAHFADPDTLVNWDFVEQVRICSHEVPSCPICLYPPTAAKITRCGHIFCWACILHYLSLSEKTWSKCPICYSSVHKKDLKSVVATESHQYVVGDTITMQLMKREKGVLVALPKSKWMNVDHPIHLGDEQHSQYSKLLLASKEQVLHRVVLEEKVALEQQLAEEKHTPESCFIEAAIQELKTREEALSGLAGSRREVTGVVAALEQLVLMAPLAKESVFQPRKGVLEYLSAFDEETTEVCSLDTPSRPLALPLVEEEEAVSEPEPEGLPEACDDLELADDNLKEGTICTESSQQEPITKSGFTRLSSSPCYYFYQAEDGQHMFLHPVNVRCLVREYGSLERSPEKISATVVEIAGYSMSEDVRQRHRYLSHLPLTCEFSICELALQPPVVSKETLEMFSDDIEKRKRQRQKKAREERRRERRIEIEENKKQGKYPEVHIPLENLQQFPAFNSYTCSSDSALGPTSTEGHGALSISPLSRSPGSHADFLLTPLSPTASQGSPSFCVGSLEEDSPFPSFAQMLRVGKAKADVWPKTAPKKDENSLVPPAPVDSDGESDNSDRVPVPSFQNSFSQAIEAAFMKLDTPATSDPLSEEKGGKKRKKQKQKLLFSTSVVHTK [RNF10] | -0.172 | -0.000862
3 | MPQKDPCQKQACEIQKCLQANSYMESKCQAVIQELRKCCAQYPKGRSVVCSGFEKEEEENLTRKSASK [CMC4] | -1.4 | 0.221
4 | MPSRAEDYEVLYTIGTGSYGRCQKIRRKSDGKILVWKELDYGSMTEAEKQMLVSEVNLLRELKHPNIVRYYDRIIDRTNTTLYIVMEYCEGGDLASVITKGTKERQYLDEEFVLRVMTQLTLALKECHRRSDGGHTVLHRDLKPANVFLDGKQNVKLGDFGLARILNHDTSFAKTFVGTPYYMSPEQMNRMSYNEKSDIWSLGCLLYELCALMPPFTAFSQKELAGKIREGKFRRIPYRYSDELNEIITRMLNLKDYHRPSVEEILENPLIADLVADEQRRNLERRGRQLGEPEKSQDSSPVLSELKLKEIQLQERERALKAREERLEQKEQELCVRERLAEDKLARAENLLKNYSLLKERKFLSLASNPELLNLPSSVIKKKVHFSGESKENIMRSENSESQLTSKSKCKDLKKRLHAAQLRAQALSDIEKNYQLKSRQILGMR [NEK2] | -0.123 | 0.191
5 | MPSSTSPDQGDDLENCILRFSDLDLKDMSLINPSSSLKAELDGSTKKKYSFAKKKAFALFVKTKEVPTKRSFECKEKLWKCCRQLFTDQTSIHRHVATQHADEIYHQTASILKQLAVTLSTSKSLSSADEKNPLKECLPHSHDVSAWLPDISCFNPDELISGQGSEEGEVLLYYCYHDLEDPQWICAWQTALCQHLHLTGKIRIAAEGINGTVGGSKLATRLYVEVMLSFPLFKDDLCKDDFKTSKGGAHCFPELRVGVFEEIVPMGISPKKISYKKPGIHLSPGEFHKEVEKFLSQANQEQSDTILLDCRNFYESKIGRFQGCLAPDIRKFSYFPSYVDKNLELFREKRVLMYCTGGIRCERGSAYLKAKGVCKEVFQLKGGIHKYLEEFPDGFYKGKLFVFDERYALSYNSDVVSECSYCGARWDQYKLCSTPQCRQLVLTCPACQGQGFTACCVTCQDKGSRKVSGPMQDSFKEECECTARRPRIPRELLQHVRQPVSPEPGPDADEDGPVLM [TSTD2] | 0.0173 | -0.113
6 | MPVQAAQWTEFLSCPICYNEFDENVHKPISLGCSHTVCKTCLNKLHRKACPFDQTAINTDIDVLPVNFALLQLVGAQVPDHQSIKLSNLGENKHYEVAKKCVEDLALYLKPLSGGKGVASLNQSALSRPMQRKLVTLVNCQLVEEEGRVRAMRAARSLGERTVTELILQHQNPQQLSANLWAAVRARGCQFLGPAMQEEALKLVLLALEDGSALSRKVLVLFVVQRLEPRFPQASKTSIGHVVQLLYRASCFKVTKRDEDSSLMQLKEEFRSYEALRREHDAQIVHIAMEAGLRISPEQWSSLLYGDLAHKSHMQSIIDKLQSPESFAKSVQELTIVLQRTGDPANLNRLRPHLELLANIDPNPDAVSPTWEQLENAMVAVKTVVHGLVDFIQNYSRKGHETPQPQPNSKYKTSMCRDLRQQGGCPRGTNCTFAHSQEELEKYRLRNKKINATVRTFPLLNKVGVNNTVTTTAGNVISVIGSTETTGKIVPSTNGISNAENSVSQLISRSTDSTLRALETVKKVGKVGANGQNAAGPSADSVTENKIGSPPKTPVSNVAATSAGPSNVGTELNSVPQKSSPFLTRVPVYPPHSENIQYFQDPRTQIPFEVPQYPQTGYYPPPPTVPAGVAPCVPRFVRSNNVPESSLPPASMPYADHYSTFSPRDRMNSSPYQPPPPQPYGPVPPVPSGMYAPVYDSRRIWRPPMYQRDDIIRSNSLPPMDVMHSSVYQTSLRERYNSLDGYYSVACQPPSEPRTTVPLPREPCGHLKTSCEEQIRRKPDQWAQYHTQKAPLVSSTLPVATQSPTPPSPLFSVDFRADFSESVSGTKFEEDHLSHYSPWSCGTIGSCINAIDSEPKDVIANSNAVLMDLDSGDVKRRVHLFETQRRTKEEDPIIPFSDGPIISKWGAISRSSRTGYHTTDPVQATASQGSATKPISVSDYVPYVNAVDSRWSSYGNEATSSAHYVERDRFIVTDLSGHRKHSSTGDLLSLELQQAKSNSLLLQREANALAMQQKWNSLDEGRHLTLNLLSKEIELRNGELQSDYTEDATDTKPDRDIELELSALDTDEPDGQSEPIEEILDIQLGISSQNDQLLNGMAVENGHPVQQHQKEPPKQKKQSLGEDHVILEEQKTILPVTSCFSQPLPVSISNASCLPITTSVSAGNLILKTHVMSEDKNDFLKPVANGKMVNS [RC3H2] | 0.279 | -0.128
7 | MPVQAPQWTDFLSCPICTQTFDETIRKPISLGCGHTVCKMCLNKLHRKACPFDQTTINTDIELLPVNSALLQLVGAQVPEQQPITLCSGVEDTKHYEEAKKCVEELALYLKPLSSARGVGLNSTTQSVLSRPMQRKLVTLVHCQLVEEEGRIRAMRAARSLGERTVTELILQHQNPQQLSSNLWAAVRARGCQFLGPAMQEEALKLVLLALEDGSALSRKVLVLFVVQRLEPRFPQASKTSIGHVVQLLYRASCFKVTKRDEDSSLMQLKEEFRTYEALRREHDSQIVQIAMEAGLRIAPDQWSSLLYGDQSHKSHMQSIIDKLQTPASFAQSVQELTIALQRTGDPANLNRLRPHLELLANIDPSPDAPPPTWEQLENGLVAVRTVVHGLVDYIQNHSKKGADQQQPPQHSKYKTYMCRDMKQRGGCPRGASCTFAHSQEELEKFRKMNKRLVPRRPLSASLGQLNEVGLPSAAILPDEGAVDLPSRKPPALPNGIVSTGNTVTQLIPRGTDPSYDSSLKPGKIDHLSSSAPGSPPDLLESVPKSISALPVNPHSIPPRGPADLPPMPVTKPLQMVPRGSQLYPAQQTDVYYQDPRGAAPPFEPAPYQQGMYYTPPPQCVSRFVRPPPSAPEPAPPYLDHYPPYLQERVVNSQYGTQPQQYPPIYPSHYDGRRVYPAPSYTREEIFRESPIPIEIPPAAVPSYVPESRERYQQIESYYPVAPHPTQIRPSYLREPPYSRLPPPPQPHPSLDELHRRRKEIMAQLEERKVISPPPFAPSPTLPPTFHPEEFLDEDLKVAGKYKGNDYSQYSPWSCDTIGSYIGTKDAKPKDVVAAGSVEMMNVESKGMRDQRLDLQRRAAETSDDDLIPFGDRPTVSRFGAISRTSKTIYQGAGPMQAMAPQGAPTKSINISDYSPYGTHGGWGASPYSPHQNIPSQGHFSERERISMSEVASHGKPLPSAEREQLRLELQQLNHQISQQTQLRGLEAVSNRLVLQREANTLAGQSQPPPPPPPKWPGMISSEQLSLELHQVEREIGKRTRELSMENQCSLDMKSKLNTSKQAENGQPEPQNKVPAEDLTLTFSDVPNGSALTQENISLLSNKTSSLNLSEDPEGGGDNNDSQRSGVTPSSAP [RC3H1] | 0.308 | -0.0375
8 | MPVSTSLHQDGSQERPVSLTSTTSSSGSSCDSRSAMEEPSSSEAPAKNGAGSLRSRHLPNSNNNSSSWLNVKGPLSPFNSRAAAGPAHHKLSYLGRVVREIVETERMYVQDLRSIVEDYLLKIIDTPGLLKPEQVSALFGNIENIYALNSQLLRDLDSCNSDPVAVASCFVERSQEFDIYTQYCNNYPNSVAALTECMRDKQQAKFFRDRQELLQHSLPLGSYLLKPVQRILKYHLLLQEIAKHFDEEEDGFEVVEDAIDTMTCVAWYINDMKRRHEHAVRLQEIQSLLINWKGPDLTTYGELVLEGTFRVHRVRNERTFFLFDKTLLITKKRGDHFVYKGNIPCSSLMLIESTRDSLCFTVTHYKHSKQQYSIQAKTVEEKRNWTHHIKRLILENHHATIPQKAKEAILEMDSYYPNRYRCSPERLKKAWSSQDEVSTNVRQGRRQSEPTKHLLRQLNEKARAAGMKGKGRRESESSRSSRRPSGRSPTSTEKRMSFESISSLPEVEPDPEAGSEQEVFSAVEGPSAEETPSDTESPEVLETQLDAHQGLLGMDPPGDMVDFVAAESTEDLKALSSEEEEEMGGAAQEPESLLPPSVLDQASVIAERFVSSFSRRSSVAQEDSKSSGFGSPRLVSRSSSVLSLEGSEKGLARHGSATDSLSCQLSPEVDISVGVATEDSPSVNGMEPPSPGCPVEPDRSSCKKKESALSTRDRLLLDKIKSYYENAEHHDAGFSVRRRESLSYIPKGLVRNSISRFNSLPRPDPEPVPPVGSKRQVGSRPTSWALFELPGPSQAVKGDPPPISDAEFRPSSEIVKIWEGMESSGGSPGKGPGQGQANGFDLHEPLFILEEHELGAITEESATASPESSSPTEGRSPAHLARELKELVKELSSSTQGELVAPLHPRIVQLSHVMDSHVSERVKNKVYQLARQYSLRIKSNKPVMARPPLQWEKVAPERDGKSPTVPCLQEEAGEPLGGKGKRKPVLSLFDYEQLMAQEHSPPKPSSAGEMSPQRFFFNPSAVSQRTTSPGGRPSARSPLSPTETFSWPDVRELCSKYASRDEARRAGGGRPRGPPVNRSHSVPENMVEPPLSGRVGRCRSLSTKRGRGGGEAAQSPGPLPQSKPDGGETLYVTADLTLEDNRRVIVMEKGPLPSPTAGLEESSGQGPSSPVALLGQVQDFQQSAECQPKEEGSRDPADPSQQGRVRNLREKFQALNSVG [PLEKHG3] | -0.79 | -0.239
